In PMC9482650, “Quantitative fragmentomics allow affinity mapping of interactomes” (Nature Communications, 2022):

Columns and labels:
Assay in all cases: holdup assay
Parameters in all cases: key: below the threshold = too weak to quantify, mostly under pKd 3.1 to 4
PARD3B_1, Q8TEW8 = biological target: T1, PARD3B_1, Q8TEW8
T1 sequence (Q8TEW8 196-299, limits assumed, looked up): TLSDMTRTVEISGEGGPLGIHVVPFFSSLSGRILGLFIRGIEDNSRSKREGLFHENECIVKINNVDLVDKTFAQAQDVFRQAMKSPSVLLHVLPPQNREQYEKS

MAGI2_3, Q86UL8 = biological target: MAGI2_3, Q86UL8
MAGI2_5, Q86UL8 = biological target: MAGI2_5, Q86UL8
Inadl_3, Q8NI35 = biological target: Inadl_3, Q8NI35
HTRA4, P83105 = biological target: T2, HTRA4, P83105
T2 sequence (P83105 378-476, limits assumed, looked up): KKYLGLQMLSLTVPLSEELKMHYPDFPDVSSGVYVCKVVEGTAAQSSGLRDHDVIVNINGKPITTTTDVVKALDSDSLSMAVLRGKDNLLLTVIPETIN

SNTG1, Q9NSN8 = biological target: T3, SNTG1, Q9NSN8
T3 sequence (Q9NSN8 52-150, limits assumed, looked up): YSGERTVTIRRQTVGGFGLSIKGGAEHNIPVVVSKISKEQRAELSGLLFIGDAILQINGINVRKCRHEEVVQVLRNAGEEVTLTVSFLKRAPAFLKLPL

MAGI1_2, Q96QZ7 = biological target: MAGI1_2, Q96QZ7
GRIP2_7, Q9C0E4 = biological target: GRIP2_7, Q9C0E4
MAST1, Q9Y2H9 = biological target: MAST1, Q9Y2H9
SCRIB_3, Q14160 = biological target: SCRIB_3, Q14160
LIMK2, P53671 = biological target: LIMK2, P53671
PICK1, Q9NRD5 = biological target: PICK1, Q9NRD5
NHERF2_2, Q15599 = biological target: NHERF2_2, Q15599
PDZRN3_1, Q9UPQ7 = biological target: T4, PDZRN3_1, Q9UPQ7
T4 sequence (Q9UPQ7 244-349, limits assumed, looked up): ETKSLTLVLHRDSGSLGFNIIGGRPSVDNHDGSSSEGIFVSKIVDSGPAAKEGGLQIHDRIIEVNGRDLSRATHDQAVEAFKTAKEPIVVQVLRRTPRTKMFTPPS

RAPGEF6, Q8TEU7 = biological target: T5, RAPGEF6, Q8TEU7
T5 sequence (Q8TEU7 525-625, limits assumed, looked up): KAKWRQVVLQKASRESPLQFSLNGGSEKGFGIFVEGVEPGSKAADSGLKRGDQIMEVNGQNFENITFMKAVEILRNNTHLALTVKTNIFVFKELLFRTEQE

DLG4_1, P78352 = biological target: DLG4_1, P78352
HTRA1, Q92743 = biological target: HTRA1, Q92743
MPP7, Q5T2T1 = biological target: T6, MPP7, Q5T2T1
T6 sequence (Q5T2T1 134-230, limits assumed, looked up): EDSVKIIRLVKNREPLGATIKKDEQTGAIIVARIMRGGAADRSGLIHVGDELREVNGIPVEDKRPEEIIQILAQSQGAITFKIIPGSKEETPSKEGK

Inadl_9, Q8NI35 = biological target: Inadl_9, Q8NI35
NHERF4_2, Q86UT5 = biological target: NHERF4_2, Q86UT5
LIN7A, O14910 = biological target: T7, LIN7A, O14910
T7 sequence (O14910 103-200, limits assumed, looked up): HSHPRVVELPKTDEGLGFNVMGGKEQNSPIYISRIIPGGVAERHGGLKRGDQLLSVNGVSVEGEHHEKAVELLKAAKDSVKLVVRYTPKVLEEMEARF

FRMPD4, Q14CM0 = biological target: FRMPD4, Q14CM0
DLG3_2, Q92796 = biological target: T8, DLG3_2, Q92796
T8 sequence (Q92796 221-321, limits assumed, looked up): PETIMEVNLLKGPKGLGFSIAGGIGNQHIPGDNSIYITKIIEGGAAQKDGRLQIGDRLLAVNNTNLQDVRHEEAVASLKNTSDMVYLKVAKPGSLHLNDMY

LNX1_1, Q8TBB1 = biological target: LNX1_1, Q8TBB1
NHERF3_4, Q5T2W1 = biological target: T9, NHERF3_4, Q5T2W1
T9 sequence (Q5T2W1 373-468, limits assumed, looked up): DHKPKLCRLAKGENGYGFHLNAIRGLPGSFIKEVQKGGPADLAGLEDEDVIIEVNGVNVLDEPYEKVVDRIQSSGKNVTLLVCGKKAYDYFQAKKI

IL16_3, Q14005 = biological target: IL16_3, Q14005
SNTG2, Q9NY99 = biological target: T10, SNTG2, Q9NY99
T10 sequence (Q9NY99 68-166, limits assumed, looked up): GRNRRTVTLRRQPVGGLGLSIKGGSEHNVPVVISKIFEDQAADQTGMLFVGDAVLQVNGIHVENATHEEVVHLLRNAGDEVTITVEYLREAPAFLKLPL

[1] = plain residues with an end cap or a label only (N-terminal biotin on a linker: ttds)
[2] = plain residues with an end cap or a label only (N-terminal biotin on a linker: gsgsgs; C-terminal amide)

Sequence of MAST1, Q9Y2H9 (Q9Y2H9 962-1065): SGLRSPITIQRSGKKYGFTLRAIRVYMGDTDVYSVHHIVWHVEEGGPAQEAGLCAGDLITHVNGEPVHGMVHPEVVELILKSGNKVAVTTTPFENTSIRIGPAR
Sequence of Inadl_9, Q8NI35 (Q8NI35 1530-1615): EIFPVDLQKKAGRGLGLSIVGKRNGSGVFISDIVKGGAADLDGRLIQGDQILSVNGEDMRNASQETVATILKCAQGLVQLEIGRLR
Sequence of DLG4_1, P78352 (P78352 62-152): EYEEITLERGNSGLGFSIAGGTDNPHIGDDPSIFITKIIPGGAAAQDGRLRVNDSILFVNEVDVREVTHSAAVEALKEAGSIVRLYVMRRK
Sequence of PICK1, Q9NRD5 (Q9NRD5 17-115): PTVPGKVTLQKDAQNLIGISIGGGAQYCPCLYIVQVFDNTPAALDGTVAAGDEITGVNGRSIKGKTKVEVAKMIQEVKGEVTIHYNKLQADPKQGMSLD
Sequence of MAGI2_3, Q86UL8 (Q86UL8 600-682): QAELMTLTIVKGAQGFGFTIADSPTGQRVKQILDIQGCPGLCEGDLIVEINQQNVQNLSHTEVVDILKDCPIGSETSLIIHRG
Sequence of Inadl_3, Q8NI35 (Q8NI35 359-469): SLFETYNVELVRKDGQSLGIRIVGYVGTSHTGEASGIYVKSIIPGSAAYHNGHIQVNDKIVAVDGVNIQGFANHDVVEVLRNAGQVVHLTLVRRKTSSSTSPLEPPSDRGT
Sequence of NHERF4_2, Q86UT5 (Q86UT5 220-308): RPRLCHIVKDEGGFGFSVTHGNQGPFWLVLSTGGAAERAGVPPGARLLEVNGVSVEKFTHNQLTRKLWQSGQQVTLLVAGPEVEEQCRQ
Sequence of NHERF2_2, Q15599 (Q15599 142-238): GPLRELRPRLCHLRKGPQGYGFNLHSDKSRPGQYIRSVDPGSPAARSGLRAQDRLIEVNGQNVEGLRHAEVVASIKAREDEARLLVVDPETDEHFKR
Sequence of MAGI1_2, Q96QZ7 (Q96QZ7 456-580): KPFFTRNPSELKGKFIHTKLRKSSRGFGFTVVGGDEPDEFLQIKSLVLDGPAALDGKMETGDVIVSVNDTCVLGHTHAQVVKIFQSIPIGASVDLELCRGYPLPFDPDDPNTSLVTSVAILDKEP
Sequence of MAGI2_5, Q86UL8 (Q86UL8 915-1017): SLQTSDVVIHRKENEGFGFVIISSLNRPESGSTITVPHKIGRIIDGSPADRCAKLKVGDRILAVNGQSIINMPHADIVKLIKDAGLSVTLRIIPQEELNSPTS
Sequence of GRIP2_7, Q9C0E4 (Q9C0E4 934-1023): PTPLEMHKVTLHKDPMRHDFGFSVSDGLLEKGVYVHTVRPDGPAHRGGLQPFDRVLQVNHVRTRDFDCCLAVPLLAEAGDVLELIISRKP
Sequence of HTRA1, Q92743 (Q92743 360-477): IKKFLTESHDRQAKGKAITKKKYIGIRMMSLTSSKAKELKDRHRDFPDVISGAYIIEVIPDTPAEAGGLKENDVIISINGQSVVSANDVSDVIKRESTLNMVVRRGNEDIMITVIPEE
Sequence of FRMPD4, Q14CM0 (Q14CM0 67-160): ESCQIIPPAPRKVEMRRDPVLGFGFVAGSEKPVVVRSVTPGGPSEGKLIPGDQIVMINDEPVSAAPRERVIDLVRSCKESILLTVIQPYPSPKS
Sequence of IL16_3, Q14005 (Q14005 1107-1207): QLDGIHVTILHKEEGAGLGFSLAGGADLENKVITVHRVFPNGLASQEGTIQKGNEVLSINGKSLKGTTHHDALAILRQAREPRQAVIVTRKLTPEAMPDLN
Sequence of SCRIB_3, Q14160 (Q14160 999-1103): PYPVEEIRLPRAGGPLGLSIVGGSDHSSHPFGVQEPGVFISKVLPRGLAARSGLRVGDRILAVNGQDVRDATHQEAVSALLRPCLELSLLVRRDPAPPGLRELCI
Sequence of LIMK2, P53671 (P53671 143-248): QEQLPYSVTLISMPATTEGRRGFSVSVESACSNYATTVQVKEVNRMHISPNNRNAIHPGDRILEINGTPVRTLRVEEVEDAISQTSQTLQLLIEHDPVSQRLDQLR
Sequence of LNX1_1, Q8TBB1 (Q8TBB1 261-371): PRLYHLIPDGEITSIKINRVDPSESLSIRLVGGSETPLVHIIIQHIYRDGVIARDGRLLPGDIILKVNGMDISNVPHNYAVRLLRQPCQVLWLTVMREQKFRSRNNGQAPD

B1: DOCK4, Q8N1I0 (peptide)
chain: RPLPRKVSQL
B1 was tested, and the pKd (PARD3B_1, Q8TEW8; [1]) was “below the threshold”, the pKd (MAGI2_3, Q86UL8; [1]) was “below the threshold” and the pKd (MAGI2_5, Q86UL8; [1]) was “below the threshold”. The pKd (Inadl_3, Q8NI35; [1]) was “below the threshold”, the pKd (HTRA4, P83105; [1]) was “below the threshold” and the pKd (SNTG1, Q9NSN8; [1]) was “below the threshold”. For the same binder, the pKd (MAGI1_2, Q96QZ7; [1]) was 4.51, the pKd (GRIP2_7, Q9C0E4; [1]) was “below the threshold” and the pKd (MAST1, Q9Y2H9; [1]) was 3.86. For the same binder, the pKd (SCRIB_3, Q14160; [1]) was 4.72, the pKd (LIMK2, P53671; [1]) was “below the threshold” and the pKd (PICK1, Q9NRD5; [1]) was “below the threshold”. The pKd (NHERF2_2, Q15599; [1]) was “below the threshold”, the pKd (PDZRN3_1, Q9UPQ7; [1]) was 3.64 and the pKd (RAPGEF6, Q8TEU7; [1]) was “below the threshold”. For the same binder, the pKd (DLG4_1, P78352; [1]) was “below the threshold”, the pKd (HTRA1, Q92743; [1]) was “below the threshold” and the pKd (MPP7, Q5T2T1; [1]) was “below the threshold”. For the same binder, the pKd (Inadl_9, Q8NI35; [1]) was “below the threshold”, the pKd (NHERF4_2, Q86UT5; [1]) was “below the threshold” and the pKd (LIN7A, O14910; [1]) was “below the threshold”. For the same binder, the pKd (FRMPD4, Q14CM0; [1]) was “below the threshold”, the pKd (DLG3_2, Q92796; [1]) was “below the threshold” and the pKd (LNX1_1, Q8TBB1; [1]) was “below the threshold”. For the same binder, the pKd (NHERF3_4, Q5T2W1; [1]) was “below the threshold”, the pKd (IL16_3, Q14005; [1]) was “below the threshold” and the pKd (SNTG2, Q9NY99; [1]) was 3.77.

B2: SLC2A1, P11166 (peptide)
chain: FHPLGADSQV
With B2 the pKd (PARD3B_1, Q8TEW8; [1]) was “below the threshold”, the pKd (MAGI2_3, Q86UL8; [1]) was “below the threshold” and the pKd (MAGI2_5, Q86UL8; [1]) was “below the threshold”. For the same binder, the pKd (Inadl_3, Q8NI35; [1]) was “below the threshold”, the pKd (HTRA4, P83105; [1]) was “below the threshold” and the pKd (SNTG1, Q9NSN8; [1]) was 3.88. The pKd (MAGI1_2, Q96QZ7; [1]) was “below the threshold”, the pKd (GRIP2_7, Q9C0E4; [1]) was “below the threshold” and the pKd (MAST1, Q9Y2H9; [1]) was “below the threshold”. For the same binder, the pKd (SCRIB_3, Q14160; [1]) was 3.58, the pKd (LIMK2, P53671; [1]) was “below the threshold” and the pKd (PICK1, Q9NRD5; [1]) was “below the threshold”. For the same binder, the pKd (NHERF2_2, Q15599; [1]) was “below the threshold”, the pKd (PDZRN3_1, Q9UPQ7; [1]) was 3.53 and the pKd (RAPGEF6, Q8TEU7; [1]) was “below the threshold”. The pKd (DLG4_1, P78352; [1]) was 3.51, the pKd (HTRA1, Q92743; [1]) was “below the threshold” and the pKd (MPP7, Q5T2T1; [1]) was “below the threshold”. The pKd (Inadl_9, Q8NI35; [1]) was “below the threshold”, the pKd (NHERF4_2, Q86UT5; [1]) was “below the threshold” and the pKd (LIN7A, O14910; [1]) was “below the threshold”. The pKd (FRMPD4, Q14CM0; [1]) was “below the threshold”, the pKd (DLG3_2, Q92796; [1]) was 4.03 and the pKd (LNX1_1, Q8TBB1; [1]) was “below the threshold”. For the same binder, the pKd (NHERF3_4, Q5T2W1; [1]) was “below the threshold”, the pKd (IL16_3, Q14005; [1]) was “below the threshold” and the pKd (SNTG2, Q9NY99; [1]) was “below the threshold”.

B3: MLLT4_int, P55196 (peptide)
chain: YGIVQETTFDLGGDIH
With B3 the pKd (PARD3B_1, Q8TEW8; [2]) was “below the threshold”, the pKd (MAGI2_3, Q86UL8; [2]) was “below the threshold” and the pKd (MAGI2_5, Q86UL8; [2]) was “below the threshold”. For the same binder, the pKd (Inadl_3, Q8NI35; [2]) was “below the threshold”, the pKd (HTRA4, P83105; [2]) was “below the threshold” and the pKd (SNTG1, Q9NSN8; [2]) was “below the threshold”. The pKd (MAGI1_2, Q96QZ7; [2]) was “below the threshold”, the pKd (GRIP2_7, Q9C0E4; [2]) was “below the threshold” and the pKd (MAST1, Q9Y2H9; [2]) was “below the threshold”. For the same binder, the pKd (SCRIB_3, Q14160; [2]) was 4.61, the pKd (LIMK2, P53671; [2]) was “below the threshold” and the pKd (PICK1, Q9NRD5; [2]) was “below the threshold”. The pKd (NHERF2_2, Q15599; [2]) was “below the threshold”, the pKd (PDZRN3_1, Q9UPQ7; [2]) was “below the threshold” and the pKd (RAPGEF6, Q8TEU7; [2]) was “below the threshold”. The pKd (DLG4_1, P78352; [2]) was “below the threshold”, the pKd (HTRA1, Q92743; [2]) was “below the threshold” and the pKd (MPP7, Q5T2T1; [2]) was “below the threshold”. The pKd (Inadl_9, Q8NI35; [2]) was “below the threshold”, the pKd (NHERF4_2, Q86UT5; [2]) was “below the threshold” and the pKd (LIN7A, O14910; [2]) was “below the threshold”. The pKd (FRMPD4, Q14CM0; [2]) was “below the threshold”, the pKd (DLG3_2, Q92796; [2]) was 4.21 and the pKd (LNX1_1, Q8TBB1; [2]) was “below the threshold”. For the same binder, the pKd (NHERF3_4, Q5T2W1; [2]) was “below the threshold”, the pKd (IL16_3, Q14005; [2]) was “below the threshold” and the pKd (SNTG2, Q9NY99; [2]) was “below the threshold”.

B4: ACVR2A, P27037 (peptide)
chain: VDFPPKESSL
B4 was tested, and the pKd (PARD3B_1, Q8TEW8; [1]) was “below the threshold”, the pKd (MAGI2_3, Q86UL8; [1]) was “below the threshold” and the pKd (MAGI2_5, Q86UL8; [1]) was “below the threshold”. For the same binder, the pKd (Inadl_3, Q8NI35; [1]) was “below the threshold”, the pKd (HTRA4, P83105; [1]) was “below the threshold” and the pKd (SNTG1, Q9NSN8; [1]) was 3.65. The pKd (MAGI1_2, Q96QZ7; [1]) was “below the threshold”, the pKd (GRIP2_7, Q9C0E4; [1]) was “below the threshold” and the pKd (MAST1, Q9Y2H9; [1]) was 4.77. The pKd (SCRIB_3, Q14160; [1]) was 4.88, the pKd (LIMK2, P53671; [1]) was “below the threshold” and the pKd (PICK1, Q9NRD5; [1]) was “below the threshold”. The pKd (NHERF2_2, Q15599; [1]) was 3.77, the pKd (PDZRN3_1, Q9UPQ7; [1]) was 4.76 and the pKd (RAPGEF6, Q8TEU7; [1]) was “below the threshold”. For the same binder, the pKd (DLG4_1, P78352; [1]) was “below the threshold”, the pKd (HTRA1, Q92743; [1]) was “below the threshold” and the pKd (MPP7, Q5T2T1; [1]) was “below the threshold”. The pKd (Inadl_9, Q8NI35; [1]) was “below the threshold”, the pKd (NHERF4_2, Q86UT5; [1]) was “below the threshold” and the pKd (LIN7A, O14910; [1]) was 3.24. The pKd (FRMPD4, Q14CM0; [1]) was “below the threshold”, the pKd (DLG3_2, Q92796; [1]) was “below the threshold” and the pKd (LNX1_1, Q8TBB1; [1]) was “below the threshold”. The pKd (NHERF3_4, Q5T2W1; [1]) was “below the threshold”, the pKd (IL16_3, Q14005; [1]) was “below the threshold” and the pKd (SNTG2, Q9NY99; [1]) was 4.11.
